According to the nanobody polyreactivity screen of Harvey et al. (2022):

Experiment: yeast display, Sf9 membrane polyspecificity reagent, FACS + sequencing; frameworks hold sequencing errors
Method in brief: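 Nanobodies came from a synthetic yeast display library in Saccharomyces cerevisiae BJ5465, induced with galactose for 36–48 hours and stained for 1 hour at 4 °C with 10% biotinylated, detergent-solubilized Sf9 membrane reagent. Cells were enriched on streptavidin microbeads and then FACS-sorted, with low and high (top ~1%) gates set on anti-HA fluorescence for expression and streptavidin fluorescence for reagent binding. Each polyreactivity label reflects the gate a clone came from. Genes were amplified by colony PCR, sequenced by MiSeq 2 × 250 and filtered by CDR length.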

Row | Sequence | polyreactivity (PSR sort gate)
1 | QVQLVDSGGGIVQEGGSRRLSCAASGSIFVNYAMGWYRQAPGKERELVAAITLRGVSTFYADSVKGRFTISRDNAKNTVYLQMNSLKPEETAVYYCAASSLRYRAYKSLFDYWGQGTQVTVSS | low polyreactivity
2 | QVQLVESGGGLVQAGGSLRLSCAASGFIFRRNAMGWYRQAPGKEREFVAAITWSGGSTYYADSVKGRFTISRDNAKYTVYLQMNSLKPEDTAVYYCAATYSQYWYTKYLNSYPGYDYWGQGTQVTVSS | low polyreactivity
3 | QVQLVESGGGLVQAGGTLRLSCAASGIIFGVYAMGWYRQAPGKERELVAAIDGNGSSTYYADSVKGRFTISRDTAKNTVYLQMNSLKPEDTAVYYCPAGYWSYLYYWYDFDYWGQGTQVTVSS | low polyreactivity
4 | QVQLVESGGGLVQAGGSLRLSCAASGLTSTNNAMGWYRQAHGKERELVAAITSGSTTNYADSVKGRFTISRDNAKNTVYLQMNSLKPEDTAVYYCAAQYGVCWRRYYYPEYDYWGQGTQVTVSS | low polyreactivity
5 | QVQLVESGGGLVQAGGSLRLSCAASGRIFPVNAMGWYRQAPGKEREFVARISRRGGSTYYADSVKGRFTISRDNAKNTVYLQMNSLKPEDTAVYYCAAVSSRYSYDYWGQGTQVTVSS | high polyreactivity
6 | QVQLVESGGGLVQAGGSLRLSCAASGFTFTAYAMGWYRQAPGKERELVAAISRSGGSTSYADSVKGRFTISRDNAKNTVYLQMNSLKPEDTAVYYCAAGRVGWGQGTQVTVSS | high polyreactivity
7 | QVQLVESGGGLVQAGGSLRLSCAASGRTFYTNAMGWYRQAPGKERELVAVISRGGTTYYADSVKGRFTISRDNAKYTVYFQMNSLKPEDTAVYYCAKQRPSGDSSSQLGSWGQGTQVTVSS | low polyreactivity
8 | QVQLVESGGGLVQAGGSLRLSCAASGSTFQYNAMAWYRQAPGKEREFVAAITSSGGSTYYADSVKGRFTISRDNAKNTVYLQMNSLKPEDTAVYYCNKRRTRRYDYWGQGTQVTVSS | high polyreactivity
9 | QVQLVESGGGLVQAGGSLRLSCAASGITIVNYVMGWYRQAPGKERELVAAISIGGGTYYADSVKGRFTISRDNAKNTVYLQMNSLKPEDTAVYYCNARSEVSYWWGGYWGQGTQVTVSS | low polyreactivity
10 | QVQLVESGGGLVQAGGSLRLSCAASGSIFNYYAMGWYRQAPGKERELVAGITTSGGSTYYADSVKGRFTISRDNAKNTVYFQMHSLKPEDTAVYYGAAYDYISSTYFLDDYWGQGTQVTVSS | low polyreactivity
11 | QDQLVESGGGLVQAGGSLRLSCAASGRTFYYYTMGWDRQAPGKERELVAAISRRGGRTYYADSVKRRFTISRDNAKNTVYLQMTSLKPEDTAVYYCAADRDHVVDFDYWGQGTQVTVSS | high polyreactivity
12 | QVQLVESGGGLVQAGGSLRLSCAASGSILRTYTMGWYRQAPGKERELVAAISSSGGRTYYADSVKGRFTISRDNAKNTVYLQMNSLKPEDTAVYYCNAGGYRYRSYDYWGQGTQVTVSS | high polyreactivity
13 | QVQLVESGGGLVQAGGSLRLSCAASGSTFGPYALGWYRQAPGKERELVAAIDKSGGSTYYADSVKGRFTISRDNAKNTVYLQMNSLKPEDTAVYYCAADMLRYFGYYDYDSWGQGTQVTVSS | low polyreactivity
14 | QVQLVESGGGLVQAGGSLRLSCAASGRTFFRNAMGWYRQAPGKERELVAAISKRGGSTYYADSVKGRFTISRDNAKNTVYLQMNSLKPEDTAVYYCNADPRTVGLDYWGQGTQVTVSS | high polyreactivity
15 | QVQLVESGGGLVQAGGSLRLSCAASGFIFRYYTMGWYRQAPVKERELVASITRSGGSTYYADSVKGRFTISRDNGKNTVYLQMNSLKPEDTAVYYCAAVVYLRFRNSYWGQGTQVTVSS | high polyreactivity
16 | QVKLVETGGGLVQAGGSLRLSCAASGSTFEHYAMGWYRQAPGKERELVAAISYTGGNTYYAYSVKGRFTISRDNAKNTVYLQMNSLKPEDTAVYYCAAAPLYYHRRGYYYWGQGTQVTVSS | high polyreactivity

Row | Sequence | polyreactivity (PSR sort gate)
17 | QVHLVESGGGLVKAGGSLRLSCAASGRTFAQYVMGWYRQAPGKERELVAAITWSGGSSYYADSVKGRFTISRDNAKNTVYLQMNSLKPEDTALYYCAVKGAGGPKDDYWGQGTQVTVSS | high polyreactivity
18 | QVQLVESGGGLVQAGGSLRLSCAASGFTFYRYVMGWYRQAPGTERELVAAITGGGRTYYADSVKGRFTISRDNAKNTVYLQMNSLKPEDTAVYYCNKAVPAWGLFDYWGQGTQVTVSS | low polyreactivity
19 | QVQLVESGGGLVQAGGSLRLSCAASGFIFGTYAMGWYRQAPGKEREFVAAINWGGGRTYYADSVKGRFTISRDNAKNTVYLQMNSLKPEDTAVYYCNKRLIYYRGTYYSRRFDYWGQGTQVTVSS | high polyreactivity
20 | QVQLVESGGGLVQAGGSLRLSCAASGFIFRYYAMGWYRHAPGKERELVAAISSGGRTSYADSVKGRFTISRDNAKNTVYLQMNSLKPEDTAVYYCAADSWRGLFYYGNDYWGQGTQVTVSS | high polyreactivity
21 | QVHLVESGGGLVQAGGSLRLSCAASGFTFTRYAMGWYRQAPGKERELVAAISFSGGSTYYADSVKGRFTISRDNAKNTVYLQMNSLKPEDTAVYYCAGRWSVSYQYWGQGTQVTVSS | high polyreactivity
22 | QVQLVESGGGLVQAGGSLRLSCAASGITFSVYTMGWYRQAPGKERELVAAIDSDGITNYADSVKGRFTISRDNAKNNVYLQMNSLKPEDTAVYYCAKQSGRADGVSGFDYWGQGTQVTVSS | low polyreactivity
23 | QVQLVDSGGALVQAGGSLRLSCAASGPTFYTKTMGSYRQAPGKERELVAVISSGGGSTYYSDSVKGRFTISRDNAKNTVYLQMNSLKPEDTAVYYCAKRRGGQGNYWGQGPQVTVSS | high polyreactivity
24 | QVQLEESGGGIVQAGGSLRLSCAASGSTFNYYAMGWYRQAPGKERELVAAINSNGGSTYYADSVKGRFTISRDNAKNTVYLQMNSPKPEDTAVYLCAADISPYDYDYWGQGTQVTVSS | high polyreactivity
25 | QVQLVESGGGLVQAGGSLRLSCAASGRTFRSYTMGWYRQAPGKERELVASITRSGVSTYYADSVKGRFTISRDNAKNTVYLQMNSLKPEDTAVYYCAAYSVFRSYDYWGQGTQVTVSS | high polyreactivity
26 | QVQLVESGAGLVQAGGSLRLSCAASGRIFYKYVMGWYRQAPGKERELVATITSGGSTYYADSVKGRFTISRDNAKNTVYLQMNSLKPEDTAVYYCATKQSRTRYDRYGYWGQGTQVNVSS | high polyreactivity
27 | QVQLVESGGGLVQAGGSLRLSCADSGSTFVSNTMGWYRQAPGKERELVAAISSSGGSTYYADSVKGRFSISRDNAKNTVYLQMNSLKPEDTAVYYCAAYYRAYRRDYYWGQGTQVTVSS | high polyreactivity
28 | QLQLVESGGGLVQAGGSLRLSCAASGGPFRPYAMGWYRQAPGKERELVAAISYTGSTYYADSVKGRFTISRDNAKNTVYLQMNSLKPEDTAVYYCAKDFWYPPRFDYWGQGTQVTVSS | low polyreactivity
29 | QDQLVESGGGLVQEGGSLRLSCAASVSIQAPYAMGWYRQAPGKERELVAAISSRGGSTYYADSVKGRFTISRDNAKNTVYLQMNSLKPEDTAVYYCAAYVYLQVEYDYWGQGTQVTVSW | low polyreactivity
30 | QVQLVESGGGLVQAGGSLRLSCAASGRIVKYAMGWYRQAPGKERELVAAITSGGSTTYADSVKGRFTISRDNAKNTVYLQMNSLKPEDTAVYYCKALRRARYTRKGYEYWGQGTQVTVSS | high polyreactivity
31 | QVQLVESGGGLVQAGGSLRLSCAASGRIFPPYDMGWYRQATGKEREFVAAIDWTGGSTYYADSVKGRFTISRDNAKNTVYLQMNSLKPEDTAVYYCNAEQSYRGVGWRYDYWGQGTQVTVSS | low polyreactivity
32 | QVQLVESGGGLVQAGGSLRLICAASGGIFGSYAMGWYRQAPGKEREFVAAIRYGSGSTYYADSVKGRFTISRDNAKNTVYLQMNSLKPEDTAVYYCATEYWGVYGYGFIYDYWGQGTQVTVSS | low polyreactivity
